Test results reported in publication PMC4895442, “Geometrical assembly of ultrastable protein templates for nanomaterials” (Nature Communications, 2016).

Assays:
[1] = target: TERM-foldon three-way connector (Methanocaldococcus jannaschii | bacteriophage T4) (UniProt P10104); experiment: SDS-PAGE without heating; refolded three-way connector dialyzed against PBS, SDS loading buffer added, incubated at 25-100 °C for 5 min, 10-20% gradient SDS-PAGE; the foldon trimer resists SDS
[2] = target: the molecule itself; experiment: negative-stain TEM; proteins refolded together at varying molar ratios, diluted in PBS to 20 μg/ml, on carbon/formvar grids, 2% uranyl acetate

In the case of “TERM-foldon three-way connector (from UniProt P10104 2-81)”, the stoichiometry N [1] is reported as 3.

B1: γ-prefoldin (γPFD), wild type (natural protein, Methanocaldococcus jannaschii, UniProt Q58064 1-147, looked up)
chain: MVNEVIDINEAVRAYIAQIEGLRAEIGRLDATIATLRQSLATLKSLKTLGEGKTVLVPVGSIAQVEMKVEKMDKVVVSVGQNISAELEYEEALKYIEDEIKKLLTFRLVLEQAIAELYAKIEDLIAEAQQTSEEEKAEEEENEEKAE
notes: γ-prefoldin (γPFD), filamentous prefoldin-family chaperone of the hyperthermophile Methanocaldococcus jannaschii; wild type; Assembles into filaments of variable length through the β-sheets X1 and X2; also called γPFD filaments; γPFD subunits
B1: binds [2].
